Legend:
Test in all cases: cell-based or functional assay
EGFR(T790M) (h) (human) = EGFR(T790M) (h) (human) (UniProt P00533)
TAK1 (h) (human) = target: T1, TAK1 (h) (human) (UniProt O43318)
T1 sequence (looked up): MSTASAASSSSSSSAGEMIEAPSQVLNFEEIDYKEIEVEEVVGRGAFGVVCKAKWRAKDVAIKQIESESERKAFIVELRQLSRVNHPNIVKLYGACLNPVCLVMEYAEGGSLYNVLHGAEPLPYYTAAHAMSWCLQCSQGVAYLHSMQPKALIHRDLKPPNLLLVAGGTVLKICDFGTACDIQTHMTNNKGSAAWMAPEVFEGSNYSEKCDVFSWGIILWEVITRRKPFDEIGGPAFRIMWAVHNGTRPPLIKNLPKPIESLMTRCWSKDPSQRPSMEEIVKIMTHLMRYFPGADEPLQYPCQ

EphB3 (h) (human) = EphB3 (h) (human) (UniProt P54753)
EphB3 (h) (human), sequence (P54753 581-998 limits assumed): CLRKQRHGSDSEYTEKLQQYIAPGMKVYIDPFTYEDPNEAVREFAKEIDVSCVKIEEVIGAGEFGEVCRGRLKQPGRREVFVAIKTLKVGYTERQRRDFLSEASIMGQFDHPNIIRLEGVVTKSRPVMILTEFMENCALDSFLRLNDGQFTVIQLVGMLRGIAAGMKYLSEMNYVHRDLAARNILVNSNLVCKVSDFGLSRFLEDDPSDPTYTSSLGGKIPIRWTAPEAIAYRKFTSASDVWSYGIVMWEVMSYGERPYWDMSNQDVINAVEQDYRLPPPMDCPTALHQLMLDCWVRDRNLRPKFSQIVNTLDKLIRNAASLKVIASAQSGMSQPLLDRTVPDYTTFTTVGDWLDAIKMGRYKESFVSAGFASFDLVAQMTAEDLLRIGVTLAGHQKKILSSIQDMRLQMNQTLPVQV

mTOR/FKBP12 (h) (human) = mTOR/FKBP12 (h) (human) (UniProt P42345)
mTOR/FKBP12 (h) (human), sequence (P42345 1362-2549 limits assumed, chain 1 of 2): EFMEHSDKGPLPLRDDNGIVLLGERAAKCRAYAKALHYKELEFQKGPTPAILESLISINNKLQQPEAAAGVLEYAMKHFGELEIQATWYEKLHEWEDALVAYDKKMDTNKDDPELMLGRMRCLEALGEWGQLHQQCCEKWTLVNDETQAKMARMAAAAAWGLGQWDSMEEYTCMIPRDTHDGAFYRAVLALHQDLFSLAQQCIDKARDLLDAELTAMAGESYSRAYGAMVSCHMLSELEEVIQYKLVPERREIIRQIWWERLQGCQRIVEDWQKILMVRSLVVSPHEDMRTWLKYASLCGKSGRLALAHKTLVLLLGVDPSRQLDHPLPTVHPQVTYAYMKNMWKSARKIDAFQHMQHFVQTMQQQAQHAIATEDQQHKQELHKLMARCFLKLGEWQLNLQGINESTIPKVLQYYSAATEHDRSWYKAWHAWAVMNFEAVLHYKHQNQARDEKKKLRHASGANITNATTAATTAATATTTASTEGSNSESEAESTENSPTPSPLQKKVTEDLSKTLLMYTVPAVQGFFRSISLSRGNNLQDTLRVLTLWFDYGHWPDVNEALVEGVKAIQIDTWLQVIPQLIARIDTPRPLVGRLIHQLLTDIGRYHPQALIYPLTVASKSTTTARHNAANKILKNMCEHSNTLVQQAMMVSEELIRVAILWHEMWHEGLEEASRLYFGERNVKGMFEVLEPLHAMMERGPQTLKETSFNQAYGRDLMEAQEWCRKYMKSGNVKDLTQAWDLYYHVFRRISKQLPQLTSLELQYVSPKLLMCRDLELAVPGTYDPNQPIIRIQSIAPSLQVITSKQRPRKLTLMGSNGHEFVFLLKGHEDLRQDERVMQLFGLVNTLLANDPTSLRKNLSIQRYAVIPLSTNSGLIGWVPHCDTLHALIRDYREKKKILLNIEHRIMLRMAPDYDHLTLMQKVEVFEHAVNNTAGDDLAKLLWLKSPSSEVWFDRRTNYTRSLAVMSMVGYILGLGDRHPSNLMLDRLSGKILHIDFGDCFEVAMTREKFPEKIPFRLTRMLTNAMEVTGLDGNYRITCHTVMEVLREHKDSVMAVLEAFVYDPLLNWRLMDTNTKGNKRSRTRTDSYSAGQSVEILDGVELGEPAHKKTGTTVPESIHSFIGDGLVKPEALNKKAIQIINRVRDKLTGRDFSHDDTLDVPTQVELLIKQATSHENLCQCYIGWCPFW
mTOR/FKBP12 (h) (human), sequence (P62942 whole entry, chain 2 of 2, further chain): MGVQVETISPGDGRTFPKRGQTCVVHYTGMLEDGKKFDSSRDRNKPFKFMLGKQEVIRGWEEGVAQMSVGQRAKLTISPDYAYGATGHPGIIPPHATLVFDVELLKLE

PKG1β (h) (human) = target: T2, PKG1β (h) (human) (UniProt Q13976)
T2 sequence (looked up): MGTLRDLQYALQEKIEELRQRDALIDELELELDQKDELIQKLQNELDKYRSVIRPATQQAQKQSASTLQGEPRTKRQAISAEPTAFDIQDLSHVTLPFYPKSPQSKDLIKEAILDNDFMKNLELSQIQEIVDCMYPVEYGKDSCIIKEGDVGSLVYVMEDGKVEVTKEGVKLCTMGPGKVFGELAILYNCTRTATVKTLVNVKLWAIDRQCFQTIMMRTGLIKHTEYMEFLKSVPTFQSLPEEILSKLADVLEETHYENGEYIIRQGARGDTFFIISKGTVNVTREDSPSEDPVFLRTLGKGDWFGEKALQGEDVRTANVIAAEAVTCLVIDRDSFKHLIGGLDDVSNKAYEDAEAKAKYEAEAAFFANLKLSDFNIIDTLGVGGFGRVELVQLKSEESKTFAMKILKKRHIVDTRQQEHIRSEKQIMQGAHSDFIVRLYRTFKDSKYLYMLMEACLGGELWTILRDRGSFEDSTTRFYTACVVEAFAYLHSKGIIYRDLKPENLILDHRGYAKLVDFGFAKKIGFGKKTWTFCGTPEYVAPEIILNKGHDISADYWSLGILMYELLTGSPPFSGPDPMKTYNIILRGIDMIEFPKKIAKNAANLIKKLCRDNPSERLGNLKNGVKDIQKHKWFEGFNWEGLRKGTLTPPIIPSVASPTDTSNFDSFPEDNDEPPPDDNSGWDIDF

GRK7 (h) (human) = target: T3, GRK7 (h) (human) (UniProt Q8WTQ7)
T3 sequence (looked up): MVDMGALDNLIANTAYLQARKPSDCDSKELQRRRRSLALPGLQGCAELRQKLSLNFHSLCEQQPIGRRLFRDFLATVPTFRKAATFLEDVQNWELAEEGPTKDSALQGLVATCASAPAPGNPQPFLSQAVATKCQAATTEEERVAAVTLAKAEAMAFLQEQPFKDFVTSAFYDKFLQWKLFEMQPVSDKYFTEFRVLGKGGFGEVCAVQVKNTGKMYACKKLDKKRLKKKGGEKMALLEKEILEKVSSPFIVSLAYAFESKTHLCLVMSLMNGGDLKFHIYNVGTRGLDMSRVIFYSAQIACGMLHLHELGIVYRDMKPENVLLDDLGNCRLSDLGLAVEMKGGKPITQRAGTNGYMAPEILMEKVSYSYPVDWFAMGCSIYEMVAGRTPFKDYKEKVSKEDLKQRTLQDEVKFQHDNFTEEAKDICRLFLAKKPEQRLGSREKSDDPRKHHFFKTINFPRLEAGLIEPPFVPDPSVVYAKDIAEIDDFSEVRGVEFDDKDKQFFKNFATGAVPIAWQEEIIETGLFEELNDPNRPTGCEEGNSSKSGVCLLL

CaMKIIδ (h) (human) = CaMKIIδ (h) (human) (UniProt Q13557)
MSK1 (h) (human) = MSK1 (h) (human) (UniProt O75582)
cKit(V654A) (h) (human) = cKit(V654A) (h) (human) (UniProt P10721)
cKit(V654A) (h) (human), sequence (P10721 544-976 V654A): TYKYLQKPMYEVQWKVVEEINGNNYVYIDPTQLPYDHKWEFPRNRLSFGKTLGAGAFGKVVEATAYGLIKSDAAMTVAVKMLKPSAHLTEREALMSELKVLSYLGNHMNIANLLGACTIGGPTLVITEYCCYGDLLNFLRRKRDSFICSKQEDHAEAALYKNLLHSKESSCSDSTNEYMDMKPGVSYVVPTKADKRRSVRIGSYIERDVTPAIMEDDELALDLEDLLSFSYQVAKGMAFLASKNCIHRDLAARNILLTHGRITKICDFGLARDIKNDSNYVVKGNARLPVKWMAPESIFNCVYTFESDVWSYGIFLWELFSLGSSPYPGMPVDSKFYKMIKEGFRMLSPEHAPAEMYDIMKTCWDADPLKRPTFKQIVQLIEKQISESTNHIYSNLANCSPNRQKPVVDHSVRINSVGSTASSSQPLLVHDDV

SAPK2a (h) (human) = SAPK2a (h) (human) (UniProt Q16539)
SAPK2a (h) (human), sequence (Q16539 whole entry): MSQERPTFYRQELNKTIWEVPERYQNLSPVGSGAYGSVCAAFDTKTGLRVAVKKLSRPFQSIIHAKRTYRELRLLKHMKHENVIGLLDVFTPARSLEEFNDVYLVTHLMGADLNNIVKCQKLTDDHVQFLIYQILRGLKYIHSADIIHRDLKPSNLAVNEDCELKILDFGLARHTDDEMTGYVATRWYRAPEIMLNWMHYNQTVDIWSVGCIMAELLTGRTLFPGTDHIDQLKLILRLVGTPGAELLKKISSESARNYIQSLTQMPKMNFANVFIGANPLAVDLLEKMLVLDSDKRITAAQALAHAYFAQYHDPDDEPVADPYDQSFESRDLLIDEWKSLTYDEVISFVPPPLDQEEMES

CDK2/cyclinE (h) (human) = CDK2/cyclinE (h) (human) (UniProt P24941)
MuSK (h) (human) = MuSK (h) (human) (UniProt O15146)
PKA (h) (human) = PKA (h) (human) (UniProt P17612)
Axl (h) (human) = target: T4, Axl (h) (human) (UniProt P30530)
T4 sequence (looked up): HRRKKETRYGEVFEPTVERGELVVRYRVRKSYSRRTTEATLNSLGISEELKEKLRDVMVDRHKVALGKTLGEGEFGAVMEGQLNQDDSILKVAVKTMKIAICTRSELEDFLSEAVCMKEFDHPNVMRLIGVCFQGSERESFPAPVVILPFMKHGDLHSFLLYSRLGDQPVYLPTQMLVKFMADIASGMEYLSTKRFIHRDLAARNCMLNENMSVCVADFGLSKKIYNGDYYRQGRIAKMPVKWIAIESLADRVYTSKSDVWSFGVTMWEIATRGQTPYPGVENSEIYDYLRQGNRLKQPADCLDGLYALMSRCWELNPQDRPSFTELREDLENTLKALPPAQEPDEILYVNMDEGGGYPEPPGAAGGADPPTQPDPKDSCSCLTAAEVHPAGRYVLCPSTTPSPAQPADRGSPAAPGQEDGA

% activity at 100 µM (EGFR(T790M) (h) (human)): 100% | % activity at 100 µM (TAK1 (h) (human)): 122% | % activity at 100 µM (EphB3 (h) (human)): 62% | % activity at 100 µM (mTOR/FKBP12 (h) (human)): 145% | % activity at 100 µM (PKG1β (h) (human)): 50% | % activity at 100 µM (GRK7 (h) (human)): 122% | % activity at 100 µM (CaMKIIδ (h) (human)): 1% | % activity at 100 µM (MSK1 (h) (human)): 32% | % activity at 100 µM (cKit(V654A) (h) (human)): 134% | % activity at 100 µM (SAPK2a (h) (human)): 90% | % activity at 100 µM (CDK2/cyclinE (h) (human)): 94% | % activity at 100 µM (MuSK (h) (human)): 93% | % activity at 100 µM (PKA (h) (human)): 119% | % activity at 100 µM (Axl (h) (human)): 52%
Substance: MMI-0300 (peptide)

From patent US20160136234A1
